Drawing on the supplement of paper PMC6755084, this text covers fraction ligated for 34 variants.

The labels stand for the following.
B1: F1*; the commonest letter at each place (parent)
chain: GAGACCGCAACTGAAAAGTTGTTATCACTTGTCGTAAGACACTTTGGATGGGTTGAAGTTCTGCACGTAGAAGCAAAAGGC

In this data set the parent is B1. As to the kind of experiment: fraction ligated after 30 min (ligated reads / total reads); higher = more ligase activity. The note with it: with F1*sub RNA substrate (template-directed ligation), 42 °C. An outline of the steps: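 Templates from an oligo pool were PCR-amplified, transcribed with T7 and gel-purified to give the ribozyme variants. Ligated and unligated products were separated on gel, reverse transcribed using barcoded primers, and read on a MiSeq. A quality filter of ≥20 was applied to core bases. Fraction ligated was taken as ligated reads as a share of all reads per variant.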
In the case of GAGACCGCAACTGAAAAGTTGTTATCACTTGTCGTAAGACGCTCTGGATGGGTTGAAGTTCTGCACGTAGAAGCAAAAGGC, the fraction ligated is 0.76.
As for GAGACCGCAACTGAAAAGTTGTTATCACTTGTCGTAAGACGCTGTGGATGGGTTGAAGTTCTGCACGTAGAAGCAAAAGGC, the fraction ligated worked out at 0.809.
To GAGACCGCAACTGAAAAGTTGTTATCACTTGTCGTAAGACGCTTTTGATGGGTTGAAGTTCTGCACGTAGAAGCAAAAGGC belongs 0.767; to GAGACCGCAACTGAAAAGTTGTTATCACTTGTCGTAAGACGCTTTCGATGGGTTGAAGTTCTGCACGTAGAAGCAAAAGGC, 0.768; to GAGACCGCAACTGAAAAGTTGTTATCACTTGTCGTAAGACGCTTTAGATGGGTTGAAGTTCTGCACGTAGAAGCAAAAGGC, 0.791.
For the variant GAGACCGCAACTGAAAAGTTGTTATCACTTGTCGTAAGACGCTTTGGATGGGTTTAAGTTCTGCACGTAGAAGCAAAAGGC, the fraction ligated worked out at 0.754.
Turning to GAGACCGCAACTGAAAAGTTGTTATCACTTGTCGTAAGACGCTTTGGATGGGTTAAAGTTCTGCACGTAGAAGCAAAAGGC, the fraction ligated was determined as 0.785.
Consider GAGACCGCAACTGAAAAGTTGTTATCACTTGTCGTAAGACGCTTTGGATGGGTTCAAGTTCTGCACGTAGAAGCAAAAGGC, for which the fraction ligated worked out at 0.663.
To GAGACCGCAACTGAAAAGTTGTTATCACTTGTCGTAAGACCCTTTGGATGGGTTGAAGTTCTGCACGTAGAAGCAAAAGGC belongs 0.775; to GAGACCGCAACTGAAAAGTTGTTATCACTTGTCGTAAGACGCTTTGGATGGGTTGAAGTTCTGCACGTAGAAGCAAAAGGC, 0.802.
With GAGACCGCAACTGAAAAGTTGTTATCACTTGTCGTAAGACCCTTTGGGTGGGTTGAAGTTCTGCACGTAGAAGCAAAAGGC the figure was 0.783; with GAGACCGCAACTGAAAAGTTGTTATCACTTGTCGTAAGACCCTTTGGCTGGGTTGAAGTTCTGCACGTAGAAGCAAAAGGC, 0.571; with GAGACCGCAACTGAAAAGTTGTTATCACTTGTCGTAAGACCCTTTGGTTGGGTTGAAGTTCTGCACGTAGAAGCAAAAGGC, 0.736.
To GAGACCGCAACTGAAAAGTTGTTATCACTTGTCGTAAGACCCTTTGGATGGGTTAAAGTTCTGCACGTAGAAGCAAAAGGC belongs 0.804; to GAGACCGCAACTGAAAAGTTGTTATCACTTGTCGTAAGACCCTTTGGATGGGTTTAAGTTCTGCACGTAGAAGCAAAAGGC, 0.751.
On to GAGACCGCAACTGAAAAGTTGTTATCACTTGTCGTAAGACCCTTTGGATGGGTTCAAGTTCTGCACGTAGAAGCAAAAGGC, for which the fraction ligated was determined as 0.329.
As to GAGACCGCAACTGAAAAGTTGTTATCACTTGTCGTAAGACCCTTTGGATCGGTTGAAGTTCTGCACGTAGAAGCAAAAGGC, the fraction ligated amounted to 0.168.
With GAGACCGCAACTGAAAAGTTGTTATCACTTGTCGTAAGACCCTTTGGATAGGTTGAAGTTCTGCACGTAGAAGCAAAAGGC the figure was 0.28; with GAGACCGCAACTGAAAAGTTGTTATCACTTGTCGTAAGACCCTTTGGATTGGTTGAAGTTCTGCACGTAGAAGCAAAAGGC, 0.597.
As for GAGACCGCAACTGAAAAGTTGTTATCACTTGTCGTAAGACCCTTTGTATGGGTTGAAGTTCTGCACGTAGAAGCAAAAGGC, the fraction ligated is 0.157.
As for GAGACCGCAACTGAAAAGTTGTTATCACTTGTCGTAAGACCCTTTGCATGGGTTGAAGTTCTGCACGTAGAAGCAAAAGGC, the fraction ligated amounted to 0.177.
To GAGACCGCAACTGAAAAGTTGTTATCACTTGTCGTAAGACCCTTTGAATGGGTTGAAGTTCTGCACGTAGAAGCAAAAGGC belongs 0.228; to GAGACCGCAACTGAAAAGTTGTTATCACTTGTCGTAAGACGCTTTGGATGGGTTGTAGTTCTGCACGTAGAAGCAAAAGGC, 0.756.
To GAGACCGCAACTGAAAAGTTGTTATCACTTGTCGTAAGACGCTTTGGATGGGTTGGAGTTCTGCACGTAGAAGCAAAAGGC belongs 0.764.
As to GAGACCGCAACTGAAAAGTTGTTATCACTTGTCGTAAGACGCTTTGGATGGGTTGCAGTTCTGCACGTAGAAGCAAAAGGC, the fraction ligated was 0.755.
To GAGACCGCAACTGAAAAGTTGTTATCACTTGTCGTAAGACCCTTTAGATGGGTTGAAGTTCTGCACGTAGAAGCAAAAGGC belongs 0.764; to GAGACCGCAACTGAAAAGTTGTTATCACTTGTCGTAAGACCCTTTTGATGGGTTGAAGTTCTGCACGTAGAAGCAAAAGGC, 0.676; to GAGACCGCAACTGAAAAGTTGTTATCACTTGTCGTAAGACCCTTTCGATGGGTTGAAGTTCTGCACGTAGAAGCAAAAGGC, 0.639.
To GAGACCGCAACTGAAAAGTTGTTATCACTTGTCGTAAGACCCTTTGGATGGGTTGAGGTTCTGCACGTAGAAGCAAAAGGC belongs 0.773; to GAGACCGCAACTGAAAAGTTGTTATCACTTGTCGTAAGACCCTTTGGATGGGTTGACGTTCTGCACGTAGAAGCAAAAGGC, 0.767; to GAGACCGCAACTGAAAAGTTGTTATCACTTGTCGTAAGACCCTTTGGATGGGTTGATGTTCTGCACGTAGAAGCAAAAGGC, 0.785.
Turning to GAGACCGCAACTGAAAAGTTGTTATCACTTGTCGTAAGACCCTTTGGAAGGGTTGAAGTTCTGCACGTAGAAGCAAAAGGC, the fraction ligated is 0.178.
As to GAGACCGCAACTGAAAAGTTGTTATCACTTGTCGTAAGACCCTTTGGAGGGGTTGAAGTTCTGCACGTAGAAGCAAAAGGC, the fraction ligated was determined as 0.209.
Take GAGACCGCAACTGAAAAGTTGTTATCACTTGTCGTAAGACCCTTTGGACGGGTTGAAGTTCTGCACGTAGAAGCAAAAGGC: the fraction ligated was found to be 0.17.
